Starred links: 1 amine or outer side, 2 acyl side, 3 side chain; linkers in the order of their positions; H or OH if unused. Non-standard residues stand in square brackets, D forms with d. Groups on a side chain read outwards from the residue. No end group written: not given here. *: point of attachment. C20 diacid = O=C(O)CCCCCCCCCCCCCCCCCCC(=O)*; γGlu = O=C(O)[C@H](CCC(=O)[*:2])N[*:1]; Nle = CCCC[C@H](N)C(=O)O; Nva = CCC[C@H](N)C(=O)O; AEEA = NCCOCCOCC(=O)O; Aib = CC(C)(N)C(=O)O
Legend:
[1] = biological target: T1, GIPR (UniProt P48546 22-466, limits assumed); assay: cell-based or functional assay
T1 sequence (looked up): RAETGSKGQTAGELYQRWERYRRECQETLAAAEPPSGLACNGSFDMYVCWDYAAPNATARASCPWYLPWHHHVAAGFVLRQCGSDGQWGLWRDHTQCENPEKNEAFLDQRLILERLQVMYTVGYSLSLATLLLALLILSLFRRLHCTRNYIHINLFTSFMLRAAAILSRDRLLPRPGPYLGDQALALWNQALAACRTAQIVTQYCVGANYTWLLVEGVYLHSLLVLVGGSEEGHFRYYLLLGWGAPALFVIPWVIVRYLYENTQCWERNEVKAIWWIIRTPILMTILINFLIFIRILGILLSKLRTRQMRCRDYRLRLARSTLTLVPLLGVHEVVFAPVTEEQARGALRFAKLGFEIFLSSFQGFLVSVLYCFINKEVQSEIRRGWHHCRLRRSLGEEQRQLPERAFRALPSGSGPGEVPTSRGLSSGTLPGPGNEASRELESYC

[2] = biological target: GLP-1R (UniProt P43220 24-463, limits assumed); assay: cell-based or functional assay

Molecule	Half effective Concentration (EC50), cellular cAMP assay on GIPR-expressing cells [1] [nM]	Half effective Concentration (EC50), cellular cAMP assay on GLP-1R-expressing cells [2] [nM]
Tirzepatide (peptide)	1.9	6.8
Y[Aib]EGTFTSDYSI[Nle]LDKIAQK([AEEA-Aib-γGlu-C20 diacid])AFVQWLIAGGPSSGAPPPS-NH2 (N-terminus assumed; SMILES CCCC[C@H](NC(=O)[C@@H](NC(=O)[C@H](CO)NC(=O)[C@H](Cc1ccc(O)cc1)NC(=O)[C@H](CC(=O)O)NC(=O)[C@H](CO)NC(=O)[C@@H](NC(=O)[C@H](Cc1ccccc1)NC(=O)[C@@H](NC(=O)CNC(=O)[C@H](CCC(=O)O)NC(=O)C(C)(C)NC(=O)[C@@H](N)Cc1ccc(O)cc1)[C@@H](C)O)[C@@H](C)O)[C@@H](C)CC)C(=O)N[C@@H](CC(C)C)C(=O)N[C@@H](CC(=O)O)C(=O)N[C@@H](CCCCN)C(=O)N[C@H](C(=O)N[C@@H](C)C(=O)N[C@@H](CCC(N)=O)C(=O)N[C@@H](CCCCNC(=O)COCCOCCNC(=O)C(C)(C)NC(=O)CC[C@H](NC(=O)CCCCCCCCCCCCCCCCCCC(=O)O)C(=O)O)C(=O)N[C@@H](C)C(=O)N[C@@H](Cc1ccccc1)C(=O)N[C@H](C(=O)N[C@@H](CCC(N)=O)C(=O)N[C@@H](Cc1c[nH]c2ccccc12)C(=O)N[C@@H](CC(C)C)C(=O)N[C@H](C(=O)N[C@@H](C)C(=O)NCC(=O)NCC(=O)N1CCC[C@H]1C(=O)N[C@@H](CO)C(=O)N[C@@H](CO)C(=O)NCC(=O)N[C@@H](C)C(=O)N1CCC[C@H]1C(=O)N1CCC[C@H]1C(=O)N1CCC[C@H]1C(=O)N[C@@H](CO)C(N)=O)[C@@H](C)CC)C(C)C)[C@@H](C)CC) [Compound 11]	0.0064	0.0059
Y[Aib]EGTFTSDYSI[Nva]LDKIAQK([AEEA-Aib-γGlu-C20 diacid])AFVQWLIAGGPSSGAPPPS-NH2 (N-terminus assumed; SMILES CCC[C@H](NC(=O)[C@@H](NC(=O)[C@H](CO)NC(=O)[C@H](Cc1ccc(O)cc1)NC(=O)[C@H](CC(=O)O)NC(=O)[C@H](CO)NC(=O)[C@@H](NC(=O)[C@H](Cc1ccccc1)NC(=O)[C@@H](NC(=O)CNC(=O)[C@H](CCC(=O)O)NC(=O)C(C)(C)NC(=O)[C@@H](N)Cc1ccc(O)cc1)[C@@H](C)O)[C@@H](C)O)[C@@H](C)CC)C(=O)N[C@@H](CC(C)C)C(=O)N[C@@H](CC(=O)O)C(=O)N[C@@H](CCCCN)C(=O)N[C@H](C(=O)N[C@@H](C)C(=O)N[C@@H](CCC(N)=O)C(=O)N[C@@H](CCCCNC(=O)COCCOCCNC(=O)C(C)(C)NC(=O)CC[C@H](NC(=O)CCCCCCCCCCCCCCCCCCC(=O)O)C(=O)O)C(=O)N[C@@H](C)C(=O)N[C@@H](Cc1ccccc1)C(=O)N[C@H](C(=O)N[C@@H](CCC(N)=O)C(=O)N[C@@H](Cc1c[nH]c2ccccc12)C(=O)N[C@@H](CC(C)C)C(=O)N[C@H](C(=O)N[C@@H](C)C(=O)NCC(=O)NCC(=O)N1CCC[C@H]1C(=O)N[C@@H](CO)C(=O)N[C@@H](CO)C(=O)NCC(=O)N[C@@H](C)C(=O)N1CCC[C@H]1C(=O)N1CCC[C@H]1C(=O)N1CCC[C@H]1C(=O)N[C@@H](CO)C(N)=O)[C@@H](C)CC)C(C)C)[C@@H](C)CC) [Compound 1]	0.0276	0.0124
Y[Aib]EGTFTSDYSI[Nva]LDKIAQK([AEEA-AEEA-γGlu-C20 diacid])AFVQWLIAGGPSSGAPPPS-NH2 (N-terminus assumed; SMILES CCC[C@H](NC(=O)[C@@H](NC(=O)[C@H](CO)NC(=O)[C@H](Cc1ccc(O)cc1)NC(=O)[C@H](CC(=O)O)NC(=O)[C@H](CO)NC(=O)[C@@H](NC(=O)[C@H](Cc1ccccc1)NC(=O)[C@@H](NC(=O)CNC(=O)[C@H](CCC(=O)O)NC(=O)C(C)(C)NC(=O)[C@@H](N)Cc1ccc(O)cc1)[C@@H](C)O)[C@@H](C)O)[C@@H](C)CC)C(=O)N[C@@H](CC(C)C)C(=O)N[C@@H](CC(=O)O)C(=O)N[C@@H](CCCCN)C(=O)N[C@H](C(=O)N[C@@H](C)C(=O)N[C@@H](CCC(N)=O)C(=O)N[C@@H](CCCCNC(=O)COCCOCCNC(=O)COCCOCCNC(=O)CC[C@H](NC(=O)CCCCCCCCCCCCCCCCCCC(=O)O)C(=O)O)C(=O)N[C@@H](C)C(=O)N[C@@H](Cc1ccccc1)C(=O)N[C@H](C(=O)N[C@@H](CCC(N)=O)C(=O)N[C@@H](Cc1c[nH]c2ccccc12)C(=O)N[C@@H](CC(C)C)C(=O)N[C@H](C(=O)N[C@@H](C)C(=O)NCC(=O)NCC(=O)N1CCC[C@H]1C(=O)N[C@@H](CO)C(=O)N[C@@H](CO)C(=O)NCC(=O)N[C@@H](C)C(=O)N1CCC[C@H]1C(=O)N1CCC[C@H]1C(=O)N1CCC[C@H]1C(=O)N[C@@H](CO)C(N)=O)[C@@H](C)CC)C(C)C)[C@@H](C)CC) [Compound 6]	0.0177	0.0196
YXEGTFTSDYSIXLDKIAQKAFVQWLIAGGPSSGAPPPS (Aib at position 2; L-homoalanine (2-aminobutyric acid) at position 13; Lys 20 side chain (epsilon amino) acylated with Moiety A; C-terminal amide (Ser-NH2)) [Compound 10]	0.0073	0.0036
Y[Aib]EGTFTSDYSILLDKIAQK([AEEA-Aib-γGlu-C20 diacid])AFVQWLIAGGPSSGAPPPS-NH2 (N-terminus assumed; SMILES CC[C@H](C)[C@H](NC(=O)[C@H](CCCCN)NC(=O)[C@H](CC(=O)O)NC(=O)[C@H](CC(C)C)NC(=O)[C@H](CC(C)C)NC(=O)[C@@H](NC(=O)[C@H](CO)NC(=O)[C@H](Cc1ccc(O)cc1)NC(=O)[C@H](CC(=O)O)NC(=O)[C@H](CO)NC(=O)[C@@H](NC(=O)[C@H](Cc1ccccc1)NC(=O)[C@@H](NC(=O)CNC(=O)[C@H](CCC(=O)O)NC(=O)C(C)(C)NC(=O)[C@@H](N)Cc1ccc(O)cc1)[C@@H](C)O)[C@@H](C)O)[C@@H](C)CC)C(=O)N[C@@H](C)C(=O)N[C@@H](CCC(N)=O)C(=O)N[C@@H](CCCCNC(=O)COCCOCCNC(=O)C(C)(C)NC(=O)CC[C@H](NC(=O)CCCCCCCCCCCCCCCCCCC(=O)O)C(=O)O)C(=O)N[C@@H](C)C(=O)N[C@@H](Cc1ccccc1)C(=O)N[C@H](C(=O)N[C@@H](CCC(N)=O)C(=O)N[C@@H](Cc1c[nH]c2ccccc12)C(=O)N[C@@H](CC(C)C)C(=O)N[C@H](C(=O)N[C@@H](C)C(=O)NCC(=O)NCC(=O)N1CCC[C@H]1C(=O)N[C@@H](CO)C(=O)N[C@@H](CO)C(=O)NCC(=O)N[C@@H](C)C(=O)N1CCC[C@H]1C(=O)N1CCC[C@H]1C(=O)N1CCC[C@H]1C(=O)N[C@@H](CO)C(N)=O)[C@@H](C)CC)C(C)C) [Compound 3]	0.0128	0.0327
